Literature values as cited in article PMC5641599 (Molecular Metabolism, 2017).
Where two headings read alike, the source gives them in different places.

Legend:
MC4R variants [1] = settings: cited from earlier work
MC4R variants [2] = settings: cited from earlier work; remark: listed apart in the source
MC4R variants [3] = settings: ref Larsen LH, J Clin Endocrinol Metab, 2005, cited from earlier work
[4] = ref Rong R, Clin Endocrinol, 2006
[5] = COS-7 cell line, ref Hughes DA, Hum Genet, 2009
[6] = COS-7 cell line, ref Brumm H, Obesity, 2012
[7] = ref Wang ZQ, Biochim Biophys Acta, 2011
[8] = COS-7 cell line, ref Hinney A, J Clin Endocrinol Metab, 2006
[9] = ref Fan ZC, J Cell Mol Med, 2009
[10] = ref Srinivasan S, J Clin Invest, 2004
[11] = ref Xiang Z, Biochemistry, 2010
[12] = ref Lubrano-Berthelier C, J Clin Endocrinol Metab, 2006

Q: What does the source list for C40R?
A: Cell surface expression (MC4R variants [1]; [4]): 100 % of WT; Basal activity (MC4R variants [2]; COS-7 cell line, ref Tarnow P, J Biol Chem, 2003): 112 % of WT; Basal activity (MC4R variants [2]; [4]): 157 % of WT

Q: What does the source list for C40Y?
A: Cell surface expression (MC4R variants [1]; [5]): 49 % of WT; Basal activity (MC4R variants [2]; [5]): 108 % of WT

Q: For D37G, which Cell surface expression (MC4R variants [1]; ref Hughes DA, Hum Genet, 2009) is on record?
A: Its Cell surface expression is 100 % of WT.

Q: What about the Basal activity (MC4R variants [2]; ref Hughes DA, Hum Genet, 2009) of the same substance?
A: The Basal activity was 83 % of WT.

Q: For “E61X (MVNSTHRGMHTSLHLWNRSSYRLHSNASESLGKGYSDGGCYEQLFVSPEVFVTLGVISLL; nonsense E61X; UniProt P32245 1-60, looked up, fragment)”, which Cell surface expression (MC4R variants [1]; [6]) is on record?
A: The Cell surface expression was 5 % of WT.

Q: For G32E, which Basal activity (MC4R variants [2]; limited data, ref Ahituv N, Am J Hum Genet, 2007) is on record?
A: The Basal activity was 70 % of WT.

Q: For G34A, which Cell surface expression (MC4R variants [1]; ref Moore BS, PLoS One, 2014) is on record?
A: Its Cell surface expression is 85 % of WT.

Q: What does the source list for MT-II?
A: cAMP Emax - Ligand no.2 (% of WT) (MC4R variants [3]; MC4R A219V, ligand no.2 MT-II): 34.0 % of WT; cAMP Emax - Ligand no.2 (MC4R variants [3]; MC4R S36Y): 86.0 % of WT

Q: Which results are given for Q307X?
A: Cell surface expression (MC4R variants [1]; [6]): 40 % of WT; Cell surface expression (MC4R variants [1]; ref Santoro N, BMC Med Genet, 2009): 31 % of WT; Cell surface expression (MC4R variants [1]; [7]): 20 % of WT; Basal activity (MC4R variants [2]; [7]): 20 % of WT

Q: Which Cell surface expression (MC4R variants [1]; [8]) does the source give for R7C here?
A: Its Cell surface expression is 100 % of WT.

Q: What about the Cell surface expression (MC4R variants [1]; [9]) of the same substance?
A: The Cell surface expression was 45 % of WT.

Q: What about the Basal activity (MC4R variants [2]; [8]) of the same substance?
A: Its Basal activity is 133 % of WT.

Q: What about the Basal activity (MC4R variants [2]; [9]) of the same substance?
A: The Basal activity was 100 % of WT.

Q: Which Cell surface expression (MC4R variants [1]; [10]) does the source give for R7H here?
A: Its Cell surface expression is 80 % of WT.

Q: And the Cell surface expression (MC4R variants [1]; [11])?
A: The Cell surface expression was 100 % of WT.

Q: With R18C as the substance, how does the Cell surface expression (MC4R variants [1]; [12]) read?
A: Its Cell surface expression is 115 % of WT.

Q: And the Cell surface expression (MC4R variants [1]; [10])?
A: The Cell surface expression was 95 % of WT.

Q: What about the Cell surface expression (MC4R variants [1]; ref Xiang Z, Biochemistry, 2006) of the same substance?
A: Its Cell surface expression is 45 % of WT.

Q: And the Basal activity (MC4R variants [2]; [12])?
A: Its Basal activity is 36 % of WT.

Q: Which results are given for R18H?
A: Cell surface expression (MC4R variants [1]; [12]): 150 % of WT; Cell surface expression (MC4R variants [1]; [10]): 95 % of WT; Cell surface expression (MC4R variants [1]; [11]): 85 % of WT; Basal activity (MC4R variants [2]; [12]): 46 % of WT
